Drawing on paper PMC8990011, this text covers inhibition of cBid- and Bim-triggered Bax-pore formation in ANTS/DPX liposomes (100 nM Bax, 20 nM cBid or Bim, 8-500 nM Bcl-xL protein), IC50 for one substance.

The assay has as its target Bax, endogenous in HeLa cells (human (endogenous in HeLa)) (UniProt Q07812).

Chain of Bax, endogenous in HeLa cells (human (endogenous in HeLa)) (Q07812 whole entry): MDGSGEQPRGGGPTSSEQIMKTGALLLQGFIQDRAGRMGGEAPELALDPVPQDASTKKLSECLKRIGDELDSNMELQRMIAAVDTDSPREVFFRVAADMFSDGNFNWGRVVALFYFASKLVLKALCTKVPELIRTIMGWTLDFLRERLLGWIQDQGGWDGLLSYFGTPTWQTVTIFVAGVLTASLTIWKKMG

Substance “6xHis-Bcl-xL^K87D (from UniProt Q07817-1 1-233) (natural protein)” registered an inhibition of cBid- and Bim-triggered Bax-pore formation in ANTS/DPX liposomes (100 nM Bax, 20 nM cBid or Bim, 8-500 nM Bcl-xL protein), IC50 of 80 nM.
